Test results: US5985836A, “Alpha-1 proteinase inhibitor binding peptides” (Bayer Corporation, priority 1998, dated 1999)
Blank lines part the entries; values can stand above or below the substance they belong to. Ends that are not written are not given here.

Key:
[1] = biological target: T1, A1PI (Homo sapiens, UniProt P01009); experiment: Capture and elution of active A1PI with 2M urea buffer (elastase inhibition activity assay and immunonephelometry); assay type: binding; details: 4° C.
T1 construct: Human plasma is currently the only approved source of therapeutic AlPI

[2] = biological target: T2, AlPI (Homo sapiens, UniProt P01009); experiment: Effect of peptide density on AlPI capture from Eff. II+III, 4M GdnHCl final strip; assay type: binding; details: 4° C.; for Mass AlPI per Eluate Fraction, 1M NaCl / Mass AlPI per Eluate Fraction, Flowthrough / Mass AlPI per Eluate Fraction, 4M GdnHCl: * Below detection limit
T2 construct: Eff; II+III is a process intermediate in the Cohn plasma fractionation process; tissue Bayer Corporation (Clayton, N.C.); host or cells: plasma fraction: Cohn Effluent II+III
Description: The substitution density of the peptide VIFLVR (SEQ ID NO:37) on the Tosohaas resin was reduced by the varying the ratio of Fmoc-L-Ala/Boc-L-Ala following linkage of the Totda linker. A similar procedure was outlined previously (Buettner et al. 1997). The peptide was then synthesized onto these resins. A 1.0 ml aliquot of neat Eff. II+III was injected onto the columns, and the chromatography cycle was the same as used for other studies involving Eff. II+III. The one exception was the use of 4M guanidine hydrochloride (GdnHCl) in lieu of 2% acetic acid as the final strip.

[3] = biological target: T1, A1PI; experiment: Purification of A1PI from Effluent II+III on peptide column, A1PI mass balance; assay type: binding; details: 1 ml Eff. II+III, 4° C.; for Mass A1PI per Eluate Fraction, 2% Acetic Acid / Mass A1PI per Eluate Fraction, Flowthrough / Mass A1PI per Eluate Fraction, 1M NaCl: * Below detection limit
Summary of the method: (§1)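 First, 1 ml of the ethanolic Cohn intermediate (20% ethanol, ~1 mg/ml A1PI) is injected and held for a 10 min residence time. Columns are then eluted stepwise at a constant 865 μl/min with 1M NaCl, 3M NaCl and finally 2% acetic acid, all at 4° C.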

[4] = biological target: T3, apolipoprotein alpha-1 (Apo A-1) (Homo sapiens, UniProt P02647); experiment: Purification from Effluent II+III, Apo A-1 mass balance; assay type: binding; details: 1 ml Eff. II+III, 4° C.
T3 construct: Eff; II+III is a process intermediate in the Cohn plasma fractionation process; tissue Bayer Corporation (Clayton, N.C.); host or cells: plasma fraction: Cohn Effluent II+III
Summary of the method: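 Mass balance per protein was determined over the load and each step eluate (1M NaCl, 3M NaCl, 2% acetic acid) of peptide columns challenged with 1 ml Effluent II+III. The feed contained 20% ethanol and 20-25 mg/ml hSA, the flow was 865 μl/min after a 10 min residence, and the temperature was 4° C.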

[5] = tested on: Immunoglobulin G (IgG); experiment: Purification from Effluent II+III, IgG mass balance; assay type: binding, human; details: 1 ml Eff. II+III, 4° C.
Summary of the method: as §1

[6] = tested on: Immunoglobulin A (IgA); experiment: Purification from Effluent II+III, IgA mass balance; assay type: binding, human; details: 1 ml Eff. II+III, 4° C.
Summary of the method: as §1

[7] = * as in Tables 4, 5 (below detection limit)
[8] = A1PI, * as in Tables 4, 5 (below detection limit)

T3 sequence (P02647 19-267): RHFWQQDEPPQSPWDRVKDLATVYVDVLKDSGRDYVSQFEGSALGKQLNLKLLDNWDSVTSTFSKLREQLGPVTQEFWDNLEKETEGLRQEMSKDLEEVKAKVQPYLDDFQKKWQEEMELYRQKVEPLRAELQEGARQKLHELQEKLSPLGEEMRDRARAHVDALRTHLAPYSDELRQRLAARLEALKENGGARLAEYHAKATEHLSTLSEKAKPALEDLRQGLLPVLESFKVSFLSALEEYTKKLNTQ
T1 sequence (P01009 25-418): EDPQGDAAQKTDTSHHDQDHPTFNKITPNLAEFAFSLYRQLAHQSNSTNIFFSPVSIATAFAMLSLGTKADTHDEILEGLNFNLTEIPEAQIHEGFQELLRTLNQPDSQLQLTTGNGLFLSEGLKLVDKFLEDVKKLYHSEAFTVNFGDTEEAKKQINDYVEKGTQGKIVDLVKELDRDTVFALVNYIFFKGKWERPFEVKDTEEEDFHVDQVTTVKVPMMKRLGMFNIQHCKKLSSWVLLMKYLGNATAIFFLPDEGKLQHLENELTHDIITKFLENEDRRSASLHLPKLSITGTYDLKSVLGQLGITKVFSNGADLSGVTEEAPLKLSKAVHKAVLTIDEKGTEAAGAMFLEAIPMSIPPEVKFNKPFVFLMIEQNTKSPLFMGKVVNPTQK
T2 sequence (P01009 25-418): as above

Mass A1PI in Urea Eluate (mg), Activity ([1]; 1 mg A1PI, eluted with 2M urea, pH 6, elastase inhibition activity assay): 0.36 mg
Mass A1PI in Urea Eluate (mg), Nephelometry ([1]; 1 mg A1PI, eluted with 2M urea, pH 6, immunonephelometry): 0.45 mg
Specific Activity ([1]; mass of A1PI by activity assay relative to immunonephelometry, urea eluate): 0.81 mg/mg
Percent Eluted by Fraction, 1M NaCl ([2]; peptide density 6 μmol/g): 12%
Percent Eluted by Fraction, 4M GdnHCl ([2]; peptide density 6 μmol/g): 0%
Percent Eluted by Fraction, Flowthrough ([2]; peptide density 6 μmol/g): 88%
Mass AlPI per Eluate Fraction, 1M NaCl ([2]; peptide density 6 μmol/g): 0.09 mg
Mass AlPI per Eluate Fraction, Flowthrough ([2]; peptide density 6 μmol/g): 0.69 mg
Percent Eluted by Fraction, 1M NaCl ([2]; peptide density 17 μmol/g): 44%
Percent Eluted by Fraction, 4M GdnHCl ([2]; peptide density 17 μmol/g): 7%
Percent Eluted by Fraction, Flowthrough ([2]; peptide density 17 μmol/g): 49%
Mass AlPI per Eluate Fraction, 1M NaCl ([2]; peptide density 17 μmol/g): 0.36 mg
Mass AlPI per Eluate Fraction, 4M GdnHCl ([2]; peptide density 17 μmol/g): 0.05 mg
Mass AlPI per Eluate Fraction, Flowthrough ([2]; peptide density 17 μmol/g): 0.39 mg
Percent Eluted by Fraction, 1M NaCl ([2]; peptide density 54 μmol/g): 0%
Percent Eluted by Fraction, 4M GdnHCl ([2]; peptide density 54 μmol/g): 74%
Percent Eluted by Fraction, Flowthrough ([2]; peptide density 54 μmol/g): 26%
Mass AlPI per Eluate Fraction, 4M GdnHCl ([2]; peptide density 54 μmol/g): 0.57 mg
Mass AlPI per Eluate Fraction, Flowthrough ([2]; peptide density 54 μmol/g): 0.20 mg
Percent Eluted by Fraction, 1M NaCl ([2]; peptide density 62 μmol/g): 0%
Percent Eluted by Fraction, 4M GdnHCl ([2]; peptide density 62 μmol/g): 83%
Percent Eluted by Fraction, Flowthrough ([2]; peptide density 62 μmol/g): 17%
Mass AlPI per Eluate Fraction, 4M GdnHCl ([2]; peptide density 62 μmol/g): 0.70 mg
Mass AlPI per Eluate Fraction, Flowthrough ([2]; peptide density 62 μmol/g): 0.14 mg
Percent Eluted by Fraction, 1M NaCl ([2]; peptide density 70 μmol/g): 0%
Percent Eluted by Fraction, 4M GdnHCl ([2]; peptide density 70 μmol/g): 72%
Percent Eluted by Fraction, Flowthrough ([2]; peptide density 70 μmol/g): 28%
Mass AlPI per Eluate Fraction, 4M GdnHCl ([2]; peptide density 70 μmol/g): 0.69 mg
Mass AlPI per Eluate Fraction, Flowthrough ([2]; peptide density 70 μmol/g): 0.26 mg
Percent Eluted by Fraction, 1M NaCl ([2]; peptide density 100 μmol/g): 0%
Percent Eluted by Fraction, 4M GdnHCl ([2]; peptide density 100 μmol/g): 82%
Percent Eluted by Fraction, Flowthrough ([2]; peptide density 100 μmol/g): 18%
Mass AlPI per Eluate Fraction, 4M GdnHCl ([2]; peptide density 100 μmol/g): 0.57 mg
Mass AlPI per Eluate Fraction, Flowthrough ([2]; peptide density 100 μmol/g): 0.13 mg
Mass A1PI per Eluate Fraction, 2% Acetic Acid ([3]; Table 11): 0.57 mg
Mass A1PI per Eluate Fraction, Flowthrough ([3]; Table 11): 0.13 mg
Percent Eluted by Fraction, 1M NaCl ([3]; Table 11, A1PI): 0%
Percent Eluted by Fraction, 2% Acetic Acid ([3]; Table 11, A1PI): 82%
Percent Eluted by Fraction, Flowthrough ([3]; Table 11, A1PI): 18%
Mass A1PI per Eluate Fraction, 1M NaCl ([3]; Table 13): 0.07 mg
Mass A1PI per Eluate Fraction, 2% Acetic Acid ([3]; Table 13): 0.91 mg
Mass A1PI per Eluate Fraction, Flowthrough ([3]; Table 13): 0.32 mg
Percent Eluted by Fraction, 1M NaCl ([3]; Table 13, A1PI): 5%
Percent Eluted by Fraction, 2% Acetic Acid ([3]; Table 13, A1PI): 70%
Percent Eluted by Fraction, Flowthrough ([3]; Table 13, A1PI): 25%
Substance: VIFLVR

Percent Eluted by Fraction, 1M NaCl [4]: 0%
Percent Eluted by Fraction, 2% Acetic Acid [4]: 48%
Percent Eluted by Fraction, 3M NaCl [4]: 0%
Percent Eluted by Fraction, Flow [4]: 52%
Mass Protein per Eluate Fraction, 2% Acetic Acid [4, 7]: 0.29 mg
Mass Protein per Eluate Fraction, Flow [4, 7]: 0.32 mg
Percent Eluted by Fraction, 1M NaCl ([3]; A1PI): 9%
Percent Eluted by Fraction, 2% Acetic Acid ([3]; A1PI): 43%
Percent Eluted by Fraction, 3M NaCl ([3]; A1PI): 0%
Percent Eluted by Fraction, Flow ([3]; A1PI): 48%
Mass Protein per Eluate Fraction, 1M NaCl [3, 8]: 0.10 mg
Mass Protein per Eluate Fraction, 2% Acetic Acid [3, 8]: 0.51 mg
Mass Protein per Eluate Fraction, Flow [3, 8]: 0.58 mg
Mass A1PI per Eluate Fraction, 1M NaCl ([3]; Table 11): 0.10 mg
Mass A1PI per Eluate Fraction, 2% Acetic Acid ([3]; Table 11): 0.51 mg
Mass A1PI per Eluate Fraction, Flowthrough ([3]; Table 11): 0.58 mg
Percent Eluted by Fraction, 1M NaCl ([3]; Table 11, A1PI): 9%
Percent Eluted by Fraction, 2% Acetic Acid ([3]; Table 11, A1PI): 43%
Percent Eluted by Fraction, Flowthrough ([3]; Table 11, A1PI): 48%
Substance: VIWLVR
Percent Eluted by Fraction, 1M NaCl [5]: 6%
Percent Eluted by Fraction, 2% Acetic Acid [5]: 0%
Percent Eluted by Fraction, 3M NaCl [5]: 0%
Percent Eluted by Fraction, Flow [5]: 94%
Mass Protein per Eluate Fraction, 1M NaCl [5, 7]: 0.02 mg
Mass Protein per Eluate Fraction, Flow [5, 7]: 0.36 mg
Percent Eluted by Fraction, 1M NaCl [6]: 24%
Percent Eluted by Fraction, 2% Acetic Acid [6]: 39%
Percent Eluted by Fraction, 3M NaCl [6]: 0%
Percent Eluted by Fraction, Flow [6]: 37%
Mass Protein per Eluate Fraction, 1M NaCl [6, 7]: 0.11 mg
Mass Protein per Eluate Fraction, 2% Acetic Acid [6, 7]: 0.18 mg
Mass Protein per Eluate Fraction, Flow [6, 7]: 0.17 mg
